# Measurements taken from patent publication US20220227840A1.
# Molecular target: tissue factor (TF) extracellular domains (UniProt P13726)
# Assay: not given
# Settings: Fab
# Target sequence in this assay (P13726 33-251): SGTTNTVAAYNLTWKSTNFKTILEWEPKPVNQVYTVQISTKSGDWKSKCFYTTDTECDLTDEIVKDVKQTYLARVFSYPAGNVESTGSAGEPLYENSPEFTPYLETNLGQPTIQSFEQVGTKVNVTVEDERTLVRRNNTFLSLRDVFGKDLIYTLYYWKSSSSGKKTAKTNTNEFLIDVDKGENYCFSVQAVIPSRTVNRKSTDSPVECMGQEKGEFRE
row,Kd [nM],Substance
1,0.977,D3H44 Fab H:V37W L:F98A

# Molecular target: tissue factor (TF) extracellular domains (UniProt P13726)
# Assay: SPR, TF on chip
# Settings: not given
# Target sequence in this assay (P13726 33-251 limits assumed): as the sequence (P13726 33-251) above
row,Kd [nM],Substance
1,0.0522,D3H44 WT Fab with HA-tagged light chain
2,0.04,D3H44 Fab H:F174V_P175S_S188G L:S176L
3,0.087,D3H44 Fab H:L143A_D146G_Q179R L:Q124E_V133W_Q160E_T180E
4,0.024,D3H44 Fab H:D146G_Q179K L:Q124E_Q160E_T180E
5,0.0622,D3H44 WT Fab with FLAG-tagged light chain
6,0.082,D3H44 Fab H:D146G_Q179R L:Q124E_Q160E_T178D
7,0.025,D3H44 Fab H:Q39D_A139G_V190A L:Q38R_L135W
8,0.06,D3H44 Fab H:L143E_K145T L:Q160K_T178R
9,0.086,D3H44 Fab H:K145T_Q179D_S188F L:V133A_Q160K_T178R
10,0.043,D3H44 Fab H:S188L_V190Y L:V133S
11,0.071,D3H44 Fab H:K145T_Q179D_S188L L:Q160K_T178R

# Molecular target: tissue factor (TF) extracellular domains (UniProt P13726)
# Assay: SPR, TF on chip
# Settings: not given
# Remark: another data set of the same source
# Target sequence in this assay (P13726 33-251 limits assumed): as the sequence (P13726 33-251) above
row,Kd [nM],Substance
1,0.955,D3H44 Fab H:V37W_W103F L:F98L
2,0.0729,D3H44 Fab H:V37I_Q39E L:Q38R_F98W
3,0.42,D3H44 Fab H:V37S_A93K L:F98Y
4,0.0399,D3H44 Fab H:F174V_P175S_S188G L:S176L
5,0.0871,D3H44 Fab H:L143A_D146G_Q179R L:Q124E_V133W_Q160E_T180E
6,3.4,D3H44 Fab H:W103H L:P44W_L89W_F98A
7,7.89,D3H44 Fab H:V37W_Q39D_W103H L:Q38R_F98L
8,0.212,D3H44 Fab H:W103H L:P44W_F98W
9,0.0631,D3H44 Fab H:D146G_Q179R L:Q124E_V133W_Q160E_T180E
10,0.0201,D3H44 Fab H:F174V_S188L L:V133S
11,0.0769,D3H44 Fab H:L143E_K145T L:Q124R_Q160K_T178R
12,0.163,D3H44 Fab H:Q39E L:Q38R_F98W
13,0.174,D3H44 Fab H:W103V L:P44W_F98W
14,0.0792,D3H44 Fab H:F174G_S188A L:WT
15,0.0245,D3H44 Fab H:D146G_Q179K L:Q124E_Q160E_T180E
16,0.0949,D3H44 Fab H:F174V_S188L L:S176G
17,1.22,D3H44 Fab H:V37W_F100W_W103L L:F98A
18,0.0219,D3H44 Fab H:K145E_D146G_Q179D_S188F L:V133A_Q160K_T178R
19,0.0155,D3H44 Fab H:F174W_S188L L:S176G
20,0.177,D3H44 Fab H:V37I_Q39D L:Q38R_F98W
21,0.0816,D3H44 Fab H:D146G_Q179R L:Q124E_Q160E_T178D
22,0.117,D3H44 Fab H:Q39D_A139G_V190A L:Q38R_L135W
23,0.0342,D3H44 Fab H:S188L L:WT

row,Kd [nM],Substance
1,0.0236,D3H44 Fab H:L143E_K145T L:Q160K_T178R
2,2.41,D3H44 Fab H:V37E L:L89R_F98T
3,0.0596,D3H44 Fab H:L143E_K145T L:Q124R
4,0.697,D3H44 Fab H:V37W_A93V L:F98A
5,0.0586,D3H44 Fab H:A139G_V190A L:L135W
6,0.0172,D3H44 Fab H:F174W_S188L L:V133S
7,0.125,D3H44 Fab H:S186R L:Q124E_Q160E_T178D
8,0.55,D3H44 Fab H:V37A_Q39E_W103V L:Q38N_P44W_T85K
9,0.924,D3H44 Fab H:V37W_Q39D_W103F L:Q38R_F98L
10,5.62,D3H44 Fab H:V37W_Q39R_W103H L:Q38D_F98L
11,3.44,D3H44 Fab H:V37W L:F98A
12,2.51,D3H44 Fab H:V37W_Q39E_W103F L:Q38N_T85K_F98L
13,0.127,D3H44 Fab H:Q39R L:Q38D_F98W
14,0.0866,D3H44 Fab H:S188L L:S176G
15,1.33,D3H44 Fab H:V37T_A93Q_W103T L:P44W_F98W
16,0.24,D3H44 Fab H:V37I_W103H L:P44W_F98W
17,0.0415,D3H44 Fab H:K145E_D146G_Q179D_S188L L:Q160K_T178R
18,0.0229,D3H44 Fab H:Q39R L:Q38D
19,0.101,D3H44 Fab H:V37I_Q39R L:Q38D_F98W
20,0.0271,D3H44 Fab H:F174W_S188L L:WT
21,0.111,D3H44 Fab H:K145T_Q179D_S188F L:Q160K_T178R
22,0.197,D3H44 Fab H:L45W L:Y87G
23,2.99,D3H44 Fab H:V37W_Q39R_W103H L:Q38E_F98L

row,Kd [nM],Substance
1,1.11,D3H44 Fab H:V37W_Q39R_W103F L:Q38E_F98L
2,0.0828,D3H44 Fab H:D146G_Q179K L:Q124E_V133W_Q160E_T180E
3,1.73,D3H44 Fab H:V37W_Q39D L:Q38R_F98A
4,0.0182,D3H44 Fab H:V37I_Q39E L:Q38N_T85K
5,3.18,D3H44 Fab H:V37W_Q39R L:Q38E_F98A
6,0.127,D3H44 Fab H:Q39D L:Q38R_F98W
7,0.178,D3H44 Fab H:Q39R L:Q38E_F98W
8,0.0144,D3H44 Fab H:S188L L:V133S
9,0.0134,D3H44 Fab H:Q39K L:Q38N_T85E_F98W
10,0.0273,D3H44 Fab H:Q39M L:Q38M
11,0.0423,D3H44 Fab H:K145T_Q179D_S188L L:V133A_Q160K_T178R
12,0.0856,D3H44 Fab H:K145T_Q179D_S188F L:V133A_Q160K_T178R
13,0.239,D3H44 Fab H:WT L:L89F_F98W
14,0.0406,D3H44 Fab H:A139I_K145T_D146G_Q179E_S188G_V190S L:F116A_V133G_S176F_T178A
15,0.832,D3H44 Fab H:V37A_Q39K_W103H L:Q38N_P44W_T85E
16,0.066,D3H44 Fab H:K145L_Q179E L:S131K
17,4.12,D3H44 Fab H:W103V L:P44W_L89W_F98A
18,0.144,D3H44 Fab H:V37I_Q39R L:Q38E_F98W
19,0.0348,D3H44 Fab H:Q39E L:Q38N_T85K_F98W
20,0.172,D3H44 Fab H:V37W_Q39E_W103F L:Q38R_F98L
21,0.0201,D3H44 Fab H:Q39E L:Q38N_T85K
22,0.0615,D3H44 Fab H:S186K_S188H_V190G L:F118W_Q124E_V133S_S176A_T178S_T180E
23,0.0525,D3H44 Fab H:D146G_Q179K L:Q124E_Q160E_T178D

row,Kd [nM],Substance
1,0.0428,D3H44 Fab H:S188L_V190Y L:V133S
2,0.977,D3H44 Fab H:V37A_Q39R_W103V L:Q38E_P44W
3,0.0109,D3H44 Fab H:WT L:F98W
4,1.78,D3H44 Fab H:V37W_Q39K L:Q38N_T85E_F98A
5,0.902,D3H44 Fab H:V37W_Q39E L:Q38R_F98A
6,0.123,D3H44 Fab H:V37I_Q39R L:Q38E
7,0.192,D3H44 Fab H:V37T_A93Q_W103V L:P44W_F98W
8,0.0213,D3H44 Fab H:Q39K L:Q38N_T85E
9,0.052,D3H44 Fab H:A139I L:F118W_V133S
10,0.125,D3H44 Fab H:V37I_Q39E L:Q38N_T85K_F98W
11,0.0671,D3H44 Fab H:D146G_S186R L:Q124E_Q160E_T180E
12,1.54,D3H44 Fab H:F100M_W103V L:P44W_L89W
13,0.984,D3H44 Fab H:V37W_Q39K_W103F L:Q38N_T85E_F98L
14,0.078,D3H44 Fab H:D146G_Q179R L:Q124E_Q160E_T180E
15,0.0511,D3H44 Fab H:D146G_S186R L:Q124E_Q160E_T178D
16,0.0377,D3H44 Fab H:F174V_S188L L:WT
17,0.0705,D3H44 Fab H:K145T_Q179D_S188L L:Q160K_T178R
18,0.056,Wild-type anti-TF D3H44 Fab
19,0.0243,D3H44 Fab H:L143K_D146G L:Q124E_V133D
20,0.861,D3H44 Fab H:V37W_Q39E L:Q38N_T85K_F98A
